Experimental data published in patent publication US20110117113A1, “IMMUNOGLOBULIN SINGLE VARIABLE DOMAIN DIRECTED AGAINST HUMAN CXCR4 AND OTHER CELL ASSOCIATED PROTEINS AND METHODS TO GENERATE THEM” (priority 2009, published 2011).

Assays:
Experiment in all cases: immunofluorescence on HEK-293T expressing the clone, normalised to wild type
[1] = biological target: CXCR4 mutation library clone 2396 (S178C) (human, UniProt P61073 1-352)
[2] = biological target: T1, CXCR4 mutation library clone 709 (P163L, S178I) (human, UniProt P61073 1-352)
T1 chain: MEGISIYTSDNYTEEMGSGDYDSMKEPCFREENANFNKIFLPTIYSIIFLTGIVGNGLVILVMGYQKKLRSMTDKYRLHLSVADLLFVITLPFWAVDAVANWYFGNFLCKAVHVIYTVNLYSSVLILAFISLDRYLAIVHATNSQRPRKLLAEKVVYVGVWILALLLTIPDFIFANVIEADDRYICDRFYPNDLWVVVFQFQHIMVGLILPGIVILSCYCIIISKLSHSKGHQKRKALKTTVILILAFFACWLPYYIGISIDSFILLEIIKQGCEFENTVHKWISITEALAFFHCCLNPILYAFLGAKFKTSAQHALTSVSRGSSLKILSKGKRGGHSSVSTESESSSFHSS

[3] = biological target: T2, CXCR4 mutation library clone 414 (C218R, E179V, S351T) (human, UniProt P61073 1-352)
T2 chain: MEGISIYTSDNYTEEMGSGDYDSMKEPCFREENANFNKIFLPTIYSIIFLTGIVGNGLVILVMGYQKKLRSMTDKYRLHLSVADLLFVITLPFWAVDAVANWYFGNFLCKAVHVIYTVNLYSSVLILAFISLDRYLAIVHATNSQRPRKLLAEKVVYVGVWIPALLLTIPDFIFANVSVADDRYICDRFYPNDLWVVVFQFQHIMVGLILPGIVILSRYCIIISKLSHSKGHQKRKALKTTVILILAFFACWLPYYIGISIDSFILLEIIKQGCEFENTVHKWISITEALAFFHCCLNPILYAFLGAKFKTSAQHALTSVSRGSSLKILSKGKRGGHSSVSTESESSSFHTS

[4] = biological target: CXCR4 mutation library clone 2084 (D187V) (human, UniProt P61073 1-352)
[5] = biological target: CXCR4 mutation library clone 1129 (F189V) (human, UniProt P61073 1-352)
[6] = biological target: T3, CXCR4 mutation library clone 913 (F189S, K308R) (human, UniProt P61073 1-352)
T3 chain: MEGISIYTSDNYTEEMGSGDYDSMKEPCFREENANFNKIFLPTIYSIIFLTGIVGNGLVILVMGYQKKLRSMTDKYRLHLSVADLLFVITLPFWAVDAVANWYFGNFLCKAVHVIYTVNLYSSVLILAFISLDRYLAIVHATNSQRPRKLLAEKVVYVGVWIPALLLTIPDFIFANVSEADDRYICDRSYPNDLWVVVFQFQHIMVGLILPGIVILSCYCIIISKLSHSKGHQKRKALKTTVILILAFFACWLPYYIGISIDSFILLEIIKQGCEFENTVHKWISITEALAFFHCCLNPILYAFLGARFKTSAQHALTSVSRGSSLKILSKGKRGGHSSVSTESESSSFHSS

[7] = biological target: T4, CXCR4 mutation library clone 465 (F189L, S319P, V155E) (human, UniProt P61073 1-352)
T4 chain: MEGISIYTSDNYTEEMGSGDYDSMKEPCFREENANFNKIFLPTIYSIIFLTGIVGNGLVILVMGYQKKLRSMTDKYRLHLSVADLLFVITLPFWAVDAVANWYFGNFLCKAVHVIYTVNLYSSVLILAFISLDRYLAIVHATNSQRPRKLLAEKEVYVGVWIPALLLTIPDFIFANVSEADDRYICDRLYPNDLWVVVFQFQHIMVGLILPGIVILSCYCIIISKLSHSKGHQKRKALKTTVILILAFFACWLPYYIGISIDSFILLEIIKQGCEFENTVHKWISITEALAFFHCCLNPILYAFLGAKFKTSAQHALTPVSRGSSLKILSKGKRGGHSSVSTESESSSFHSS

[8] = biological target: CXCR4 mutation library clone 2184 (P191T) (human, UniProt P61073 1-352)
[9] = biological target: CXCR4 mutation library clone 914 (N192K) (human, UniProt P61073 1-352)
[10] = biological target: CXCR4 mutation library clone 3630 (W195R) (human, UniProt P61073 1-352)
[11] = biological target: CXCR4 mutation library clone 2270 (V196E) (human, UniProt P61073 1-352)
[12] = biological target: T5, CXCR4 mutation library clone 185 (E277A, I245V, N298S) (human, UniProt P61073 1-352)
T5 chain: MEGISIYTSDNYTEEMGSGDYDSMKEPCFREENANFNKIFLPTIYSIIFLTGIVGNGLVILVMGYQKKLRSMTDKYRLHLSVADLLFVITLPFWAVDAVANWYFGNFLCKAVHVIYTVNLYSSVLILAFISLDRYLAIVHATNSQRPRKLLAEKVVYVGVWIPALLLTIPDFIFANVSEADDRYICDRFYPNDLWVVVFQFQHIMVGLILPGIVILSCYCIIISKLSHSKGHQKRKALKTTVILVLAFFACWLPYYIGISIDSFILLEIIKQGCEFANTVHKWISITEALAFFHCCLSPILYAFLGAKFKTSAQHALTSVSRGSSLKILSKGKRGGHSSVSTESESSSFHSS

[13] = biological target: CXCR4 mutation library clone 3622 (E277G) (human, UniProt P61073 1-352)

B1: Nanobody 238D4 (VHH)
VHH: EVQLMESGGGLVQAGGSLRLSCAASGRTFNNYAMGWFRRAPGKEREFVAAITRSGVRSGVSAIYGDSVKDRFTISRDNAKNTLYLQMNSLKPEDTAVYTCAASAIGSGALRRFEYDYSGQGTQVTVSS
% immunofluorescence [1]: 28.2% | % immunofluorescence [2]: 30% | % immunofluorescence [3]: 8% | % immunofluorescence [4]: -8% | % immunofluorescence [5]: 5.2% | % immunofluorescence [6]: -16.9% | % immunofluorescence [7]: 12.2% | % immunofluorescence [8]: 124% | % immunofluorescence [9]: 55.8% | % immunofluorescence [10]: 58.8% | % immunofluorescence [11]: 94% | % immunofluorescence [12]: 69.3% | % immunofluorescence [13]: 52.5%
